Measurements published in EP1475388A2.

Target: human calcium sensitive potassium channel α subunit (human Slowpoke α) (human), Q12791
Test: cell-based or functional assay

Chain of human calcium sensitive potassium channel α subunit (human Slowpoke α) (human), Q12791 (Q12791 whole entry): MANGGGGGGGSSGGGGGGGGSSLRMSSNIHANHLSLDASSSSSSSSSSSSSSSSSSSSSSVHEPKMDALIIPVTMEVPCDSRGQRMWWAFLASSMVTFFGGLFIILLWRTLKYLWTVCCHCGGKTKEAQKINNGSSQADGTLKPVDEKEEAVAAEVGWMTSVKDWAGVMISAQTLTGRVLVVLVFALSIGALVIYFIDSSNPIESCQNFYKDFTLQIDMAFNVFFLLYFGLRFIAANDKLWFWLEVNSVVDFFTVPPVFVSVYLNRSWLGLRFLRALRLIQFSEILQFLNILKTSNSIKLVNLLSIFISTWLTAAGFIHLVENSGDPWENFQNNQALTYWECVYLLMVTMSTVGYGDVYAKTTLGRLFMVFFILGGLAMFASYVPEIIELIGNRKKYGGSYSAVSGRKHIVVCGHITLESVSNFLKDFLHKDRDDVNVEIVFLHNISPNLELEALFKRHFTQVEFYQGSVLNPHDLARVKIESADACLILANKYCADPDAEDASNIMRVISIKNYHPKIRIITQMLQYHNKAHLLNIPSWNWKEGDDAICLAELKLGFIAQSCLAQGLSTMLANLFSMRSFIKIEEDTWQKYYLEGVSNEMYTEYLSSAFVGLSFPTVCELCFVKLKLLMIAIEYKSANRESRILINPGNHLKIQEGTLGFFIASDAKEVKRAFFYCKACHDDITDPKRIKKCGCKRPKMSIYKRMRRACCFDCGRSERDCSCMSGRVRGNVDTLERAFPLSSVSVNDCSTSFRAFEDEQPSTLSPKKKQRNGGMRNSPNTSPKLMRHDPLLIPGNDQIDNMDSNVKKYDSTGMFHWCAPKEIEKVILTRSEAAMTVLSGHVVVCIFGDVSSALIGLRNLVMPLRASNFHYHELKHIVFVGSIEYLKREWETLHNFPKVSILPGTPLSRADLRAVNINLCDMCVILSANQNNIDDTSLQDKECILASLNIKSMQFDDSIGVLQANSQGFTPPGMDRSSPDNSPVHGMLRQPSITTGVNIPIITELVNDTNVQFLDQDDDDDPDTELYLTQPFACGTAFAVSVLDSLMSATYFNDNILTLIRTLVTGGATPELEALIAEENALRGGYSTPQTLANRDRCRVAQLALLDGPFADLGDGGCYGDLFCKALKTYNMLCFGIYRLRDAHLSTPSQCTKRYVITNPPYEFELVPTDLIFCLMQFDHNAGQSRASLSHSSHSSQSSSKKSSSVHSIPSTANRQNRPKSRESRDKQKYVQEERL

V1/2 (half-maximal activation voltage, Boltzmann fit, inside-out patches, 30 µM Ca2+) | shift in the voltage dependence of activation | τinact (inactivation time constant at 80 mV with 30 µM intracellular Ca2+) | Binder
-55 mV | 80 mV | 30 to 40 ms | human calcium sensitive potassium channel β2 subunit, Q9Y691 1-235 (protein) MFIWTSGRTSSSYRHDEKRNIYQKIRDHDLLDKRKTVTALKAGEDRAILLGLAMMVCSIMMYFLLGITLLRSYMQSVWTEESQCTLLNASITETFNCSFSCGPDCWKLSQYPCLQVYVNLTSSGEKLLLYHTEETIKINQKCSYIPKCGKNFEESMSLVNVVMENFRKYQHFSCYSDPEGNQKSVILTKLYSSNVLFHSLFWPTCMMAGGVAIVAMVKLTQYLSLLCERIQRINR
45.4 mV | – | 30 to 40 ms | human calcium sensitive potassium channel β3a subunit, Q9NPA1 23-279 (protein) MQPFSIPVQITLQGSRRRQGRTAFPASGKKRETDYSDGDPLDVHKRLPSSTGEDRAVMLGFAMMGFSVLMFFLLGTTILKPFMLSIQREESTCTAIHTDIMDDWLDCAFTCGVHCHGQGKYPCLQVFVNLSHPGQKALLHYNEEAVQINPKCFYTPKCHQDRSDLLNSALDIKEFFDHKNGTPFSCFYSPASQSEDVILIKKYDQMAIFHCLFWPSLTLLGGALIVGMVRLTQHLSLLCEKYSTVVRDEVGGKVPYIEQHQFKLCIMRRSKGRAEKS
20 mV | – | 30 to 40 ms | human calcium sensitive potassium channel β3c subunit, Q9NPA1 23-279 (protein) MFPLLYELTAVSPSPFPQRTAFPASGKKRETDYSDGDPLDVHKRLPSSTGEDRAVMLGFAMMGFSVLMFFLLGTTILKPFMLSIQREESTCTAIHTDIMDDWLDCAFTCGVHCHGQGKYPCLQVFVNLSHPGQKALLHYNEEAVQINPKCFYTPKCHQDRSDLLNSALDIKEFFDHKNGTPFSCFYSPASQSEDVILIKKYDQMAIFHCLFWPSLTLLGGALIVGMVRLTQHLSLLCEKYSTVVRDEVGGKVPYIEQHQFKLCIMRRSKGRAEKS
